Reference: article PMC12397115 (European Journal of Nuclear Medicine and Molecular Imaging, 2025)
Several values for one entry are separate records, joined by “and”; a condition that tells them apart may be missing. Identical values can stand only once. Like-named read-outs stand apart in the source and are kept apart here.

Columns and labels:
[1] = Blood pharmacokinetics after one administration, population approach; assay type: in vivo, adolescent and adult patients
[2] = ref NETTER-1, cited from earlier work
[3] = Laboratory abnormalities during Cycle 1, safety set; parameters: species or system adolescent patients; details: in vivo
[4] = Observed, adult GEP-NET N=47, historical data; ref NETTER-1 and Erasmus studies; cited from earlier work
[5] = assay type: in vivo, adolescent patients; details: for Kidneys projected CAD, median (range) / Kidneys projected CAD, mean (SD): coefficient × 4 × 7.4
[6] = in vivo
[7] = Observed, adolescent GEP-NET and PPGL N=11
[8] = adolescents, 11 patients, population approach

SMILES: C[C@@H](O)[C@H](NC(=O)[C@@H]1CSSC[C@H](NC(=O)[C@@H](Cc2ccccc2)NC(=O)CN2CCN(CC(=O)O)CCN(CC(=O)O)CCN(CC(=O)O)CC2)C(=O)N[C@@H](Cc2ccc(O)cc2)C(=O)N[C@H](Cc2c[nH]c3ccccc23)C(=O)N[C@@H](CCCCN)C(=O)N[C@@H]([C@@H](C)O)C(=O)N1)C(=O)O [177Lu-DOTATATE, [^177Lu]Lu-DOTA-TATE, metal not drawn]
- AUClast, geometric mean (geometric CV%) [1, 7]: 41.00 (24.15) ng.h/mL
- Cmax, geometric mean (geometric CV%) [1, 7]: 11.17 (33.04) ng/mL
- Tmax, median (range) [1, 7]: 0.58 (0.50–0.77) hours
- T½β, population value ([1]; adolescents): 36.9 h
- AUCinf, overall mean ± SD [1, 8]: 35.84 ± 4.49 ng·h/mL
- Cmax, overall mean ± SD [1, 8]: 10.33 ± 0.54 ng/mL
- clearance, overall mean ± SD [1, 8]: 5.98 ± 0.69 L/h
- AUClast, geometric mean (geometric CV%) ([2]; Observed, adult GEP-NET N=20): 30.08 (50.38) ng.h/mL
- Cmax, geometric mean (geometric CV%) ([2]; Observed, adult GEP-NET N=20): 8.98 (73.28) ng/mL
- Tmax, median (range) ([2]; Observed, adult GEP-NET N=20): 0.47 (0.25–1.17) hours
- T½β ([2]; adults with GEP-NET): 59.1 h
- Grade ≥ 3 biochemistry abnormalities [3]: No
- Bone marrow Probability (%) >2 Gy [4]: 6%
- Kidneys Probability (%) >29 Gy [4]: 13%
- Kidneys absorbed dose coefficient, mean (SD) ([5]; All patients): 0.78 ± 0.28 Gy/GBq and 0.78 (0.28) Gy/GBq
- Kidneys absorbed dose coefficient, median (range) ([5]; All patients): 0.71 (0.46–1.3) Gy/GBq
- Red marrow (blood) absorbed dose coefficient, mean (SD) ([5]; All patients): 0.026 ± 0.0050 Gy/GBq and 0.026 (0.0050) Gy/GBq
- Red marrow (blood) absorbed dose coefficient, median (range) ([5]; All patients): 0.026 (0.019–0.035) Gy/GBq
- Red marrow (blood) projected CAD, mean (SD) ([5]; All patients): 0.78 ± 0.15 Gy and 0.78 (0.15) Gy
- Red marrow (blood) projected CAD, median (range) ([5]; All patients): 0.76 (0.55–1.0) Gy
- Spleen absorbed dose coefficient, mean (SD) ([5]; All patients): 0.74 (0.27) Gy/GBq
- Spleen absorbed dose coefficient, median (range) ([5]; All patients): 0.72 (0.28–1.1) Gy/GBq
- Spleen projected CAD, mean (SD) ([5]; All patients): 22 (8.1) Gy
- Spleen projected CAD, median (range) ([5]; All patients): 21 (8.3–34) Gy
- Total body absorbed dose coefficient, mean (SD) ([5]; All patients): 0.040 (0.0095) Gy/GBq
- Total body projected CAD, mean (SD) ([5]; All patients): 1.2 (0.28) Gy
- Total body projected CAD, median (range) ([5]; All patients): 1.2 (0.66–1.6) Gy
- Urinary bladder wall absorbed dose coefficient, mean (SD) ([5]; All patients): 0.55 (0.089) Gy/GBq
- Urinary bladder wall absorbed dose coefficient, median (range) ([5]; All patients): 0.52 (0.47–0.68) Gy/GBq
- Urinary bladder wall projected CAD, mean (SD) ([5]; All patients): 16 (2.6) Gy
- Urinary bladder wall projected CAD, median (range) ([5]; All patients): 15 (14–20) Gy
- Tumour absorbed dose coefficient, mean (SD) ([5]; All patients, 18 lesions): 2.0 (1.2) Gy/GBq
- Tumour absorbed dose coefficient, median (range) ([5]; All patients, 18 lesions): 1.9 (0.17–5.1) Gy/GBq
- Tumour projected CAD, mean (SD) ([5]; All patients, 18 lesions): 58 (37) Gy
- Tumour projected CAD, median (range) ([5]; All patients, 18 lesions): 55 (4.9–150) Gy
- Pituitary absorbed dose coefficient, mean (SD) ([5]; All patients, n=9): 1.1 (0.43) Gy/GBq
- Pituitary absorbed dose coefficient, median (range) ([5]; All patients, n=9): 1.0 (0.61–1.9) Gy/GBq
- Pituitary projected CAD, mean (SD) ([5]; All patients, n=9): 33 ± 13 Gy and 33 (13) Gy
- Pituitary projected CAD, median (range) ([5]; All patients, n=9): 30 (18–56) Gy
- Kidneys projected CAD, median (range) ([5]; All patients): 21 (14–40) Gy
- Kidneys absorbed dose coefficient, mean (SD) ([5]; GEP-NET): 0.71 (0.25) Gy/GBq
- Kidneys absorbed dose coefficient, median (range) ([5]; GEP-NET): 0.71 (0.46–0.96) Gy/GBq
- Red marrow (blood) absorbed dose coefficient, mean (SD) ([5]; GEP-NET): 0.024 (0.0035) Gy/GBq
- Red marrow (blood) absorbed dose coefficient, median (range) ([5]; GEP-NET): 0.024 (0.019–0.027) Gy/GBq
- Red marrow (blood) projected CAD, mean (SD) ([5]; GEP-NET): 0.70 (0.10) Gy
- Red marrow (blood) projected CAD, median (range) ([5]; GEP-NET): 0.72 (0.55–0.79) Gy
- Spleen absorbed dose coefficient, mean (SD) ([5]; GEP-NET): 0.63 (0.39) Gy/GBq
- Spleen absorbed dose coefficient, median (range) ([5]; GEP-NET): 0.55 (0.28–1.1) Gy/GBq
- Spleen projected CAD, mean (SD) ([5]; GEP-NET): 19 (12) Gy
- Spleen projected CAD, median (range) ([5]; GEP-NET): 16 (8.3–34) Gy
- Total body absorbed dose coefficient, mean (SD) ([5]; GEP-NET): 0.040 (0.013) Gy/GBq
- Total body absorbed dose coefficient, median (range) ([5]; GEP-NET): 0.040 (0.022–0.055) Gy/GBq
- Total body projected CAD, mean (SD) ([5]; GEP-NET): 1.2 (0.40) Gy
- Total body projected CAD, median (range) ([5]; GEP-NET): 1.2 (0.66–1.6) Gy
- Urinary bladder wall absorbed dose coefficient, mean (SD) ([5]; GEP-NET): 0.50 (0.034) Gy/GBq
- Urinary bladder wall absorbed dose coefficient, median (range) ([5]; GEP-NET): 0.49 (0.47–0.54) Gy/GBq
- Urinary bladder wall projected CAD, mean (SD) ([5]; GEP-NET): 15 (1.0) Gy
- Urinary bladder wall projected CAD, median (range) ([5]; GEP-NET): 14 (14–16) Gy
- Tumour absorbed dose coefficient, mean (SD) ([5]; GEP-NET, 8 lesions): 2.6 (1.2) Gy/GBq
- Tumour absorbed dose coefficient, median (range) ([5]; GEP-NET, 8 lesions): 2.3 (1.4–5.1) Gy/GBq
- Tumour projected CAD, mean (SD) ([5]; GEP-NET, 8 lesions): 76 ± 35 Gy and 76 (35) Gy
- Tumour projected CAD, median (range) ([5]; GEP-NET, 8 lesions): 69 (41–150) Gy
- Pituitary absorbed dose coefficient, mean (SD) ([5]; GEP-NET, n=3): 1.2 (0.43) Gy/GBq
- Pituitary absorbed dose coefficient, median (range) ([5]; GEP-NET, n=3): 1.1 (0.93–1.7) Gy/GBq
- Pituitary projected CAD, mean (SD) ([5]; GEP-NET, n=3): 37 (13) Gy
- Pituitary projected CAD, median (range) ([5]; GEP-NET, n=3): 32 (28–51) Gy
- Kidneys projected CAD, mean (SD) ([5]; GEP-NET): 21 (7.3) Gy
- Kidneys projected CAD, median (range) ([5]; GEP-NET): 21 (14–28) Gy
- Kidneys absorbed dose coefficient, mean (SD) ([5]; PPGL): 0.82 (0.32) Gy/GBq
- Kidneys absorbed dose coefficient, median (range) ([5]; PPGL): 0.71 (0.55–1.3) Gy/GBq
- Pituitary absorbed dose coefficient, mean (SD) ([5]; PPGL): 1.0 (0.45) Gy/GBq
- Pituitary absorbed dose coefficient, median (range) ([5]; PPGL): 0.93 (0.61–1.9) Gy/GBq
- Pituitary projected CAD, mean (SD) ([5]; PPGL): 31 (13) Gy
- Pituitary projected CAD, median (range) ([5]; PPGL): 28 (18–56) Gy
- Red marrow (blood) absorbed dose coefficient, mean (SD) ([5]; PPGL): 0.028 (0.0052) Gy/GBq
- Red marrow (blood) absorbed dose coefficient, median (range) ([5]; PPGL): 0.029 (0.022–0.035) Gy/GBq
- Red marrow (blood) projected CAD, mean (SD) ([5]; PPGL): 0.83 (0.16) Gy
- Red marrow (blood) projected CAD, median (range) ([5]; PPGL): 0.87 (0.64–1.0) Gy
- Spleen absorbed dose coefficient, mean (SD) ([5]; PPGL): 0.82 (0.17) Gy/GBq
- Spleen absorbed dose coefficient, median (range) ([5]; PPGL): 0.81 (0.64–1.1) Gy/GBq
- Spleen projected CAD, mean (SD) ([5]; PPGL): 24 (5.0) Gy
- Spleen projected CAD, median (range) ([5]; PPGL): 24 (19–31) Gy
- Total body absorbed dose coefficient, mean (SD) ([5]; PPGL): 0.041 (0.0073) Gy/GBq
- Total body projected CAD, mean (SD) ([5]; PPGL): 1.2 (0.21) Gy
- Total body projected CAD, median (range) ([5]; PPGL): 1.2 (0.97–1.5) Gy
- Urinary bladder wall absorbed dose coefficient, mean (SD) ([5]; PPGL): 0.59 (0.096) Gy/GBq
- Urinary bladder wall absorbed dose coefficient, median (range) ([5]; PPGL): 0.63 (0.47–0.68) Gy/GBq
- Urinary bladder wall projected CAD, mean (SD) ([5]; PPGL): 17 (2.8) Gy
- Urinary bladder wall projected CAD, median (range) ([5]; PPGL): 19 (14–20) Gy
- Tumour absorbed dose coefficient, mean (SD) ([5]; PPGL, 10 lesions): 1.5 (1.1) Gy/GBq
- Tumour absorbed dose coefficient, median (range) ([5]; PPGL, 10 lesions): 1.2 (0.17–3.3) Gy/GBq
- Tumour projected CAD, mean (SD) ([5]; PPGL, 10 lesions): 44 ± 34 Gy and 44 (34) Gy
- Tumour projected CAD, median (range) ([5]; PPGL, 10 lesions): 36 (4.9–98) Gy
- Kidneys projected CAD, mean (SD) ([5]; PPGL): 24 (9.3) Gy
- Kidneys projected CAD, median (range) ([5]; PPGL): 21 (16–40) Gy
- deaths by data cutoff [6]: no deaths
- patients with AEs that resulted in infusion interruptions [6]: 18%
- treatment-related nephrotoxicity [6]: no treatment-related nephrotoxicity was observed
